Where “and” joins values, the source holds several entries; their conditions need not be identical. Identical values can stand only once.

Here are results for seven molecules from patent US20140221623A1 (Ablynx, published 2014).

In assay [1] the target is T1, Human soluble IL6-R (human, UniProt P08887 20-358).
T1 construct: Bought soluble receptor; biotinylated in some Alphascreen assays; also called sIL6-R; hIL-6R
T1 sequence (looked up): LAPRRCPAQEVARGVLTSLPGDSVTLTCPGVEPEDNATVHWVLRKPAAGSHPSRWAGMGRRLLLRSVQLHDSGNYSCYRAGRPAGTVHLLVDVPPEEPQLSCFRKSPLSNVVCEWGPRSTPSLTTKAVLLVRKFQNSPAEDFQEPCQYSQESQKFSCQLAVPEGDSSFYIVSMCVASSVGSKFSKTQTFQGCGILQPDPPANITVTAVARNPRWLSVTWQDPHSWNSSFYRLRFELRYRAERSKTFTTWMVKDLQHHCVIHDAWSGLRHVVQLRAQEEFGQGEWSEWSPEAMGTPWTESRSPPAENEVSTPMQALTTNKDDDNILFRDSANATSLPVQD
In words: SPR (Biacore), off-rate. In general terms: SPR reads the build-up and loss of mass on a sensor chip optically.

In assay [2] the target is T2, IL6-R on U266 cells (human, UniProt P08887 20-468).
T2 sequence (looked up): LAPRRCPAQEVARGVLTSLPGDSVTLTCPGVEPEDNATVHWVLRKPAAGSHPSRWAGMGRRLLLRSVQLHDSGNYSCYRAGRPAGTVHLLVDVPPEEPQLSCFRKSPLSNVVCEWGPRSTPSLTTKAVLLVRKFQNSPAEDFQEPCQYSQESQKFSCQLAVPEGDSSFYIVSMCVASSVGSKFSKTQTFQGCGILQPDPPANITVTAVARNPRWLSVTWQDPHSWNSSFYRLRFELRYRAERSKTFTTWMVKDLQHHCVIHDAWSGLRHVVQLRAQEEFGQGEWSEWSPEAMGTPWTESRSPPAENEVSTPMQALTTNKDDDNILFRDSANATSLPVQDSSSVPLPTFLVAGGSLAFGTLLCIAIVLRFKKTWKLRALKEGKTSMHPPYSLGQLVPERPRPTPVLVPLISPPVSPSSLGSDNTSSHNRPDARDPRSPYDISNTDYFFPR
In words: cell-based or functional assay.

Assay [3] deals with T1, Human soluble IL6-R. In words: Alphascreen, 100 nM Nanobody; competitor Reference-Fab on beads. In general terms: In Alpha technology, singlet oxygen from a donor bead excites a nearby acceptor bead.
For assay [4], the target named is T2, IL6-R on U266 cells. In words: cell-based or functional assay. This is another data set of the same source.
The target in assay [5] is T1, Human soluble IL6-R. In words: SPR (Biacore 3000), IL6-R on CM5 chip.
Assay [6] concerns the target T2, IL6-R on U266 cells. In words: cell-based or functional assay. This is another data set of the same source.

B1: IL6R06 (VHH)
VHH: EVQLVESGGGLVQAGGSLRLSCAASGNIFDDNTMGWTWNRQPPGKQRELVAIIATDGSTNYADSVKGRFTISRDNAKNTVYLQMNSLKPEDTAVYYCNLFSLRLGRDYWGQGTQVTVSS
notes: also called PMP32E2; PMP 32 E2
Broadly, the koff is the rate constant with which the complex falls apart. High values mean a short-lived complex, low ones a long-lived complex. Broadly, the Kd is the constant that tells how readily two partners part at equilibrium. Higher therefore signals weaker binding. The kon is a measure of how fast the partners come together. A lower kon goes with slower complex formation. For the molecule B1, the koff in the assay with Human soluble IL6-R [1] was found to be 0.000886 s⁻¹. Moreover, in the assay with IL6-R on U266 cells [2], the “IC50, TF-1 proliferation” value was 77.2 nM. Moreover, the “% binding retained in competition with Reference-Fab” value (from here on “% binding retained in competition”) with Human soluble IL6-R [3] is 36%. The “IC50, XG-1 proliferation” value with IL6-R on U266 cells [4] was determined as 42 nM. In the assay with Human soluble IL6-R [5], the affinity, expressed as Kd, was 7.1 nM and the kon was 1.07e+06 M⁻¹ s⁻¹.

B2: IL6R05 (VHH)
VHH: EVQLVESGGGLVQPGGSLRLSCAASGFTFGSYDMSWVRQAPGKGPEWVSAINSGGGSTYYADSVKGRFTISRDNAKNTLYLQMNSLKPEDTAVYYCATDWRYSDYDLPLPPPGDYWGQGTQVTVSS
notes: also called PMP32E10; PMP 32 E10
As to B2, the koff in the assay with Human soluble IL6-R [1] amounted to 0.00127 s⁻¹. In addition, in the assay with IL6-R on U266 cells [2], the “IC50, TF-1 proliferation” value came out at 19.9 nM. In addition, in the assay with Human soluble IL6-R [3], the “% binding retained in competition” value was found to be 64%. The “IC50, XG-1 proliferation” value with IL6-R on U266 cells [4] turned out to be 7.29 nM. Moreover, in the assay with Human soluble IL6-R [5], the affinity, expressed as Kd, was 9.79 nM; the koff was 0.00141 s⁻¹ and 0.00127 s⁻¹; the kon came out at 144000 M⁻¹ s⁻¹.

B3: IL6R07 (VHH)
VHH: EVQLVESGGGLVQPGGSLRLSCAASGFTLDYGAIGWFRQAPGKEREGVSCISSSTGSTYYADSVKGRFTISRDNGKNTVYLQMNSLKPEDTAVYYCAADKMWSPCLVAANEEALFEYDYWGQGTQVTVSS
notes: also called PMP33A3; PMP 33 A3
Regarding B3, the koff with Human soluble IL6-R [1] and in the assay with Human soluble IL6-R [5] was 0.000242 s⁻¹ throughout. Further, in the assay with IL6-R on U266 cells [2], the “IC50, TF-1 proliferation” value turned out to be 35 nM. Besides, the “% binding retained in competition” value with Human soluble IL6-R [3] was 80%. In addition, the “IC50, XG-1 proliferation” value in the assay with IL6-R on U266 cells [4] worked out at 50.5 nM.

B4: IL6R03 (VHH)
VHH: EVQLVESGGGLVQAGGSLRLSCAASGSIFKVNAMGWYRQAPGKQRELVAGIISGGSTNYADSVKGRLTISRDNAKNTVYLQMNSLKPEDTAVYYCSFVTTNSDYDLGRDYWGQGTQVTVSS
notes: also called PMP31A4; PMP 31 A4
B4 came in with a koff in the assay with Human soluble IL6-R [1] of 0.0016 s⁻¹. In addition, in the assay with IL6-R on U266 cells [2], the “IC50, TF-1 proliferation” value turned out to be 28.1 nM. In the assay with IL6-R on U266 cells [6], the “IC50, XG-1 proliferation with 1 mg/mL human serum albumin” value (“IC50 … with 1 mg/mL human serum albumin” below) came to 17.5 nM. For the same molecule, the “% binding retained in competition” value in the assay with Human soluble IL6-R [3] was 5%. Moreover, the “IC50, XG-1 proliferation” value with IL6-R on U266 cells [4] stood at 16.2 nM. For the same molecule, in the assay with Human soluble IL6-R [5], the affinity, expressed as Kd, was 3.03 nM; the koff is 0.00147 s⁻¹ and 0.0016 s⁻¹; the association rate constant (kon) worked out at 484000 M⁻¹ s⁻¹.

B5: IL6R10 (VHH)
VHH: EVQLVESGGGLVQAGGSLRLSCAASGRTFSSYDMGWYRQAPGKEREFVAVIHWSSGSTYYADPVKGRFTISRDNAKNTVYLQMNSLKPEDTAIYYCNAFLPGPEGFHDYWGQGTQVTVSS
notes: also called PMP35C10; PMP 35 C10
Regarding B5, the koff in the assay with Human soluble IL6-R [1] is 0.000509 s⁻¹. Further, the “IC50, TF-1 proliferation” value with IL6-R on U266 cells [2] is 9.15 nM. The “% binding retained in competition” value with Human soluble IL6-R [3] is 102%. The “IC50, XG-1 proliferation” value with IL6-R on U266 cells [4] was 2.55 nM. Besides, in the assay with Human soluble IL6-R [5], the Kd was 1.27 nM; the off-rate (koff) was 0.000526 s⁻¹ and 0.000509 s⁻¹; the kon was determined as 414000 M⁻¹ s⁻¹.

B6: IL6R13 (VHH)
VHH: EVQLVESGGGLVQPGGSLRLSCAASGFTFDDYGMSWVRQAPGRATEWVSAISWNGNNTYYTESMKGRFTISRDNAKNTVYLQMNSLKPEDTAVYYCVKGSTAIVGVPPTYPDEYDYWGQGTQVTVSS
notes: also called PMP35H4; PMP 35 H4
Molecule B6 registered an off-rate (koff) with Human soluble IL6-R [1] of 0.000178 s⁻¹. In addition, the “IC50, TF-1 proliferation” value with IL6-R on U266 cells [2] was found to be 7.2 nM. The “IC50 … with 1 mg/mL human serum albumin” value with IL6-R on U266 cells [6] was determined as 1.32 nM. Moreover, in the assay with Human soluble IL6-R [3], the “% binding retained in competition” value is 25%. For the same molecule, the “IC50, XG-1 proliferation” value with IL6-R on U266 cells [4] was determined as 1.4 nM. Further, in the assay with Human soluble IL6-R [5], the Kd was 0.53 nM and 0.79 nM; the koff is 0.000121 s⁻¹ and 0.000109 s⁻¹ and 0.000178 s⁻¹; the kon is 231000 M⁻¹ s⁻¹ and 137000 M⁻¹ s⁻¹.

B7: IL6R14 (VHH)
VHH: EVQLVESGGGLVQPGGSLRLSCAASGFSLDYYAIGWFRQAPGKEREGVSCMDSSSGTTSTYYSDSVKGRFTISRDDAKNTVYLQMNSLKPEDTAVYYCAADGHLNWGQRYVPCSQISWRGWNDYWGQGTQVTVSS
notes: also called PMP40H5; PMP 40 H5
In turn, B7 registered a koff in the assay with Human soluble IL6-R [1] of 0.000114 s⁻¹. For the same molecule, the “IC50, TF-1 proliferation” value with IL6-R on U266 cells [2] was 1.75 nM. For the same molecule, the “IC50 … with 1 mg/mL human serum albumin” value with IL6-R on U266 cells [6] is 0.751 nM. For the same molecule, the “% binding retained in competition” value with Human soluble IL6-R [3] came out at 96%. Moreover, in the assay with IL6-R on U266 cells [4], the “IC50, XG-1 proliferation” value amounted to 0.603 nM. In the assay with Human soluble IL6-R [5], binding was characterised by a dissociation constant (Kd) of 0.25 nM; the dissociation rate constant (koff) was 0.0001 s⁻¹ and 0.000114 s⁻¹; the kon stood at 402000 M⁻¹ s⁻¹.
